Measured values reported in patent publication US20090202429A1 (TRUSTEES OF COLUMBIA UNIVERSITY IN THE CITY OF NEW YORK, published 2009).

B6: murine platelet glycoprotein Ib alpha (GPIb alpha), on mouse platelets (receptor, UniProt O35930 17-734, looked up)
chain: QHTCSISKVTSLLEVNCENKKLTALPADLPADTGILHLGENQLGTFSTASLVHFTHLTYLYLDRCELTSLQTNGKLIKLENLDLSHNNLKSLPSLGWALPALTTLDVSFNKLGSLSPGVLDGLSQLQELYLQNNDLKSLPPGLLLPTTKLKKLNLANNKLRELPSGLLDGLEDLDTLYLQRNWLRTIPKGFFGTLLLPFVFLHANSWYCDCEILYFRHWLQENANNVYLWKQGVDVKDTTPNVASVRCANLDNAPVYSYPGKGCPTSSGDTDYDDYDDIPDVPATRTEVKFSTNTKVHTTHWSLLAAAPSTSQDSQMISLPPTHKPTKKQSTFIHTQSPGFTTLPETMESNPTFYSLKLNTVLIPSPTTLEPTSTQATPEPNIQPMLTTSTLTTPEHSTTPVPTTTILTTPEHSTIPVPTTAILTTPKPSTIPVPTTATLTTLEPSTTPVPTTATLTTPEPSTTLVPTTATLTTPEHSTTPVPTTATLTTPEHSTTPVPTTATLTTPEPSTTLTNLVSTISPVLTTTLTTPESTPIETILEQFFTTELTLLPTLESTTTIIPEQNSFLNLPEVALVSSDTSESSPFLNSDFCCFLPLGFYVLGLLWLLFASVVLILLLTWTWHVTPHSLDMEQSAALATSTHTTSLEVQRARQVTMPRAWLLFLQGSLPTFRSSLFLWVRPNGRVGPLVAGRRPSALSQGRGQDLLGTVGIRYSGHSL
notes: whole, on cells; also called murine GPIb alpha; murine platelets

Tests used:
[1] = target: B6; experiment: panel B: coated beads on surface-immobilized murine platelets in flow, ln of bead tethering events against time; shear stress 0.5 dyn cm-2; R2 0.96
Method: (§1) The cellular off-rates are determined by plotting the natural log of the number of VWF-A1 coated microspheres that interacted as a function of time after the initiation of tethering, the slope of the line=−koff (s⁻¹) which is the inverse of the bond lifetime. The force acting on the tether bond was calculated from force balance equations as stated above and koff plotted as a function of these forces.
(§2) The use of beads with one uniform size and shape permits determination of the relationship between wall shear stress and the force directly acting on the GPIb alpha-VWF-A1 tether bond (Fb), a parameter difficult to estimate for discoid-shaped objects such as platelets. […] This antibody was made by immunizing Fischer 344 rats (3-4 months old) with recombinant WT protein. […] Spleens from animals with the highest antibody titers were harvested and splenocytes fused with Sp2/0 mouse myeloma cells (54).

[2] = target: B6; experiment: panel B: coated beads on surface-immobilized murine platelets in flow, ln of bead tethering events against time; shear stress 2.0 dyn cm-2; R2 0.95
Method: as §1, §2

[3] = target: B6; experiment: panel B: coated beads on surface-immobilized murine platelets in flow, ln of bead tethering events against time; shear stress 3.0 dyn cm-2; R2 0.98
Method: as §1, §2

[4] = target: B6; experiment: cell-based or functional assay
[5] = target: B6; experiment: platelet adhesion to coated recombinant VWF-A1, flow chamber, 800 s^-1
[6] = target: T1, human platelet glycoprotein Ib alpha (GPIb alpha), on human platelets (human, UniProt P07359 17-652); experiment: human platelets perfused over coated mutant VWF-A1, wall shear rate 800 s-1; the sheet states that R563H corresponds to R1326H
T1 construct: whole, on cells; also called GPIbα; human GPIb alpha

[7] = target: B6; experiment: coated beads on surface-immobilized murine platelets in flow, ln of bead tethering events against time; shear stress 0.5 dyn cm-2; R2 0.96
Method: as §1, §2

[8] = target: B6; experiment: coated beads on surface-immobilized murine platelets in flow, ln of bead tethering events against time; shear stress 1.0 dyn cm-2; R2 0.95
Method: as §1, §2

[9] = target: B6; experiment: coated beads on surface-immobilized murine platelets in flow, ln of bead tethering events against time; shear stress 2.0 dyn cm-2; R2 0.98
Method: as §1, §2

[10] = target: T1, human platelet glycoprotein Ib alpha …; experiment: human platelets attached to coated human VWF-A1 against wall shear rate
[11] = target: T1, human platelet glycoprotein Ib alpha …; experiment: interaction times of VWF-A1 coated beads on surface-immobilized platelets, wall shear stress 1 dyn cm^-2
Method: The duration of these interactions are measured by recording images from a Nikon X60 DIC objective (oil immersion) viewed at a frame rate of 235 fps (Speed Vision Technologies, San Diego, Calif.) and subjected to wall shear stresses (WSS) ranging from 0.5 to 3.0 dyn cm⁻². The cellular off-rates are determined by plotting the natural log of the number of VWF-A1 coated microspheres that interacted as a function of time after the initiation of tethering, the slope of the line=−koff (s⁻¹) which is the inverse of the bond lifetime. The force acting on the tether bond was calculated from force balance equations as stated above and koff plotted as a function of these forces.

[12] = target: T2, murine plasma VWF with the 1326R>H mutation (from homozygous VWF 1326R>H knock-in mice) (mouse, UniProt Q8CIZ8 764-2813); experiment: not told at this place
T2 construct: Plasma-derived multimeric VWF; also called R1326H mutant mouse VWF; mutant mouse plasma VWF
T2 sequence (Q8CIZ8 other isoform, or with tags, fused parts or gaps limits assumed): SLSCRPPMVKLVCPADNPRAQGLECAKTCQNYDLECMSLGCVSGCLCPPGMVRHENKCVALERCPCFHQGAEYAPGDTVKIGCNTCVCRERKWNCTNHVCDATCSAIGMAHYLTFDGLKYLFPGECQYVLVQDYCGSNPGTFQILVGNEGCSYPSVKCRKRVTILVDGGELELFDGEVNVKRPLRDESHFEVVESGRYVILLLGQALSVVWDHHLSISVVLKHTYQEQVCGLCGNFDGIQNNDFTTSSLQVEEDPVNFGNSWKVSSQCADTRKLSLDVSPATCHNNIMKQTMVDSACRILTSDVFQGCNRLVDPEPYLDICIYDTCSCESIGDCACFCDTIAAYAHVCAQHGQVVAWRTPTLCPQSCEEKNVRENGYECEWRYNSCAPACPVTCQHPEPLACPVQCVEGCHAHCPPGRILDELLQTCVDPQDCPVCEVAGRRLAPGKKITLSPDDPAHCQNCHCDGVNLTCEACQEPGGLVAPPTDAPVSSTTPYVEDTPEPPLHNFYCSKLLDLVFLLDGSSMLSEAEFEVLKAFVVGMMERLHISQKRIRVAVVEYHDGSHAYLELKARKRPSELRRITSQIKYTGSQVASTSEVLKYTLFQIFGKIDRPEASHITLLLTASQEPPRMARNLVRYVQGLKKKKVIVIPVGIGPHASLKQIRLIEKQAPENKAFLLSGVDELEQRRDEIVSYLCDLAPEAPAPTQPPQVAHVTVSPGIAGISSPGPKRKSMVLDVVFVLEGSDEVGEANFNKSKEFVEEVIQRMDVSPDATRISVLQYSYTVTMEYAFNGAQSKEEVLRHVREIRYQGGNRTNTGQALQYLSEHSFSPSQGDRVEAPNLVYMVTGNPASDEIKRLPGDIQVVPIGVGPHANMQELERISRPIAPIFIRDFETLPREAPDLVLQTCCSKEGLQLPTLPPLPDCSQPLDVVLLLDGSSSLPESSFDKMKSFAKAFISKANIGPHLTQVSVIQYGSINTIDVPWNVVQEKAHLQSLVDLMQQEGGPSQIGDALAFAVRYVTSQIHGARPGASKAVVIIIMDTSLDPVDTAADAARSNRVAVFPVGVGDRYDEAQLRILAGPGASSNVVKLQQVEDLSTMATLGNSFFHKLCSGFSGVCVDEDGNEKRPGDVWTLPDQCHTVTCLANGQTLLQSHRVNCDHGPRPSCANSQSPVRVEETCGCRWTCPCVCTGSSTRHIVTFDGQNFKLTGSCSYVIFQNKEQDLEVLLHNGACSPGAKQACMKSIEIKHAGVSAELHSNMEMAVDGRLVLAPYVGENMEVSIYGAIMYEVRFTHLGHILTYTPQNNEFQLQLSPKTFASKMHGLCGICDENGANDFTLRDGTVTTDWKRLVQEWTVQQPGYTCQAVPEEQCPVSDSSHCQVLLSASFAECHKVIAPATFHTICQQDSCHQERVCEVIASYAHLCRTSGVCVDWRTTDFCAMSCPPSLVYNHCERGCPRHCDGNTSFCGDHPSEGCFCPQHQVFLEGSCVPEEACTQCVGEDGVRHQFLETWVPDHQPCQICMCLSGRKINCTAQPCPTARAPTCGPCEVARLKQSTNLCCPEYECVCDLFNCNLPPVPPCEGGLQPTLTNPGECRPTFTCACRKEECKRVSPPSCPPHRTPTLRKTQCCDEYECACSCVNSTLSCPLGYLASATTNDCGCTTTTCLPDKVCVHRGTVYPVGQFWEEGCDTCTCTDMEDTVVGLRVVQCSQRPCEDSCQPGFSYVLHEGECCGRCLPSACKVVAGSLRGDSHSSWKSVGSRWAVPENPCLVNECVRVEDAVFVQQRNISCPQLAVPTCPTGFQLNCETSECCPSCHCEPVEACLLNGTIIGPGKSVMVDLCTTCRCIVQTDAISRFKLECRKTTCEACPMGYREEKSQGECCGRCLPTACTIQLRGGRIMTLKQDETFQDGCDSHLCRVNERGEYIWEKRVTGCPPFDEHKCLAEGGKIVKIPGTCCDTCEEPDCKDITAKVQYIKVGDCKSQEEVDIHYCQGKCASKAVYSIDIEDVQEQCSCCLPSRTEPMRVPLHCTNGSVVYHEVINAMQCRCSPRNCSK

T1 sequence (P07359 17-652): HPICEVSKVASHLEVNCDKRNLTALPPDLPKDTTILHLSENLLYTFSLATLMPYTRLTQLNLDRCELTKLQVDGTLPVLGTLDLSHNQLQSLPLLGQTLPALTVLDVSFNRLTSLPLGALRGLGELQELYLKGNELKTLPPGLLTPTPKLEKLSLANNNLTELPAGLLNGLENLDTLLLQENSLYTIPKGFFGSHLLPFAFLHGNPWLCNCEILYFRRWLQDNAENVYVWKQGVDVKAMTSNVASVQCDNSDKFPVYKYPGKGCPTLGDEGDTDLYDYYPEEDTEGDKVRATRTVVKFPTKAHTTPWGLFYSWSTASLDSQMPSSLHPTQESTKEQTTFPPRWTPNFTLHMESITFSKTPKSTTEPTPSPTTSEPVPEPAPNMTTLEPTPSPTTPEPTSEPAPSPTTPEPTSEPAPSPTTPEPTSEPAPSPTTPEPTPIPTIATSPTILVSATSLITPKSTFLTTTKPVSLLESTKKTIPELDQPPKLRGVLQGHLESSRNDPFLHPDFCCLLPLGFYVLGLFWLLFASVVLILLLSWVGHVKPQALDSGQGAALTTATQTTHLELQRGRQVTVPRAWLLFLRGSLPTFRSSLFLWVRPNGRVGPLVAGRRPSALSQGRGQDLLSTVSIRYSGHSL

B1: recombinant murine VWF-A1 protein, wild type (amino acid residues 1238 to 1471, made in bacteria, His tag) (ligand)
chain: QEPGGLVAPPTDAPVSSTTPYVEDTPEPPLHNFYCSKLLDLVFLLDGSSMLSEAEFEVLKAFVVGMMERLHISQKRIRVAVVEYHDGSRAYLELKARKRPSELRRITSQIKYTGSQVASTSEVLKYTLFQIFGKIDRPEASHITLLLTASQEPPRMARNLVRYVQGLKKKKVIVIPVGIGPHASLKQIRLIEKQAPENKAFLLSGVDELEQRRDEIVSYLCDLAPEAPAPTQPP
modifications: single intra-chain disulfide bond between residues 1272 and 1458
notes: Treated as one molecule; also called M VWF-A1; mouse VWF-A1; not shown: amino-terminal 10 amino acids (including 6x histidine) contributed by the vector pQE9
koff [1]: 5.1 s⁻¹
koff [2]: 8.4 s⁻¹
koff [3]: 9.9 s⁻¹

B2: recombinant murine VWF-A1 protein with 1326R>H (ligand)
chain: QEPGGLVAPPTDAPVSSTTPYVEDTPEPPLHNFYCSKLLDLVFLLDGSSMLSEAEFEVLKAFVVGMMERLHISQKRIRVAVVEYHDGSHAYLELKARKRPSELRRITSQIKYTGSQVASTSEVLKYTLFQIFGKIDRPEASHITLLLTASQEPPRMARNLVRYVQGLKKKKVIVIPVGIGPHASLKQIRLIEKQAPENKAFLLSGVDELEQRRDEIVSYLCDLAPEAPAPTQPP
notes: also called mutated murine protein; not shown: amino-terminal vector-derived tag with 6x histidine
translocation velocities of murine platelets, fold increase against the WT mouse protein, 800 s^-1 [4]: ~7 fold
fold reduction of platelet adhesion against the WT mouse protein [5]: ~5 fold
binding result [6]: binds

B3: recombinant murine VWF-A1 protein with the type 2B mutation I1309V (1309I>V) (ligand)
chain: QEPGGLVAPPTDAPVSSTTPYVEDTPEPPLHNFYCSKLLDLVFLLDGSSMLSEAEFEVLKAFVVGMMERLHVSQKRIRVAVVEYHDGSRAYLELKARKRPSELRRITSQIKYTGSQVASTSEVLKYTLFQIFGKIDRPEASHITLLLTASQEPPRMARNLVRYVQGLKKKKVIVIPVGIGPHASLKQIRLIEKQAPENKAFLLSGVDELEQRRDEIVSYLCDLAPEAPAPTQPP
notes: also called M VWF-A1 protein containing the type 2B mutation I1309V; not shown: amino-terminal vector-derived tag with 6x histidine
koff [7]: 0.7 s⁻¹
koff [8]: 0.9 s⁻¹
koff [9]: 1.6 s⁻¹

B4: recombinant human VWF-A1 protein with 1309I>V and 1324G>S (ligand)
chain: QEPGGLVVPPTDAPVSPTTLYVEDISEPPLHDFYCSRLLDLVFLLDGSSRLSEAEFEVLKAFVVDMMERLRVSQKWVRVAVVEYHDSSHAYIGLKDRKRPSELRRIASQVKYAGSQVASTSEVLKYTLFQIFSKIDRPEASRIALLLMASQEPQRMSRNFVRYVQGLKKKKVIVIPVGIGPHANLKQIRLIEKQAPENKAFVLSSVDELEQQRDEIVSYLCDLAPEAPPPTLPP
notes: also called doubly mutated protein; not shown: amino-terminal vector-derived tag with 6x histidine
binding result [10]: no binding

B5: recombinant human VWF-A1 protein with 1309I>V and 1326H>R (ligand)
chain: QEPGGLVVPPTDAPVSPTTLYVEDISEPPLHDFYCSRLLDLVFLLDGSSRLSEAEFEVLKAFVVDMMERLRVSQKWVRVAVVEYHDGSRAYIGLKDRKRPSELRRIASQVKYAGSQVASTSEVLKYTLFQIFSKIDRPEASRIALLLMASQEPQRMSRNFVRYVQGLKKKKVIVIPVGIGPHANLKQIRLIEKQAPENKAFVLSSVDELEQQRDEIVSYLCDLAPEAPPPTLPP
notes: as for B4
fold reduction in koff against the single mutant 1326H>R [11]: 2 fold
koff [11]: 8.5 s⁻¹

B6
binding result [12]: binds
